According to patent publication US20190111032A1 (GEORGIA STATE UNIVERSITY RESEARCH FOUNDATION, published 2019):

Target: the molecule itself
Test: size exclusion chromatography and non-reducing SDS-PAGE
Method: hCaSR-ECD (from residue Tyr²⁰ to Phe⁶¹²) (FIG. 1) was expressed in suspension culture of HEK293S (GnTI-) cells and purified from the culture medium by Ni²⁺-NTA chromatography as previously described. To deglycosylate the purified protein, hCaSR-ECD was incubated with recombinant endoglycosidase F1 (Endo F1) at a 1:100 mass ratio of Endo F1 to hCaSR-ECD²⁶ overnight at 4° C. in 10 mM Tris buffer, pH 7.4. Further separation of hCaSR-ECD from Endo F1 was achieved by size exclusion chromatography (SEC) in 10 mM HEPES (pH 7.3) buffer. hCaSR-ECD forms a homodimer, as determined by the elution volume observed in SEC.

B1: extracellular domain of the human calcium-sensing receptor (hCaSR-ECD), residues Tyr20 to Phe612 (receptor, UniProt P41180 20-612, looked up)
chain: YGPDQRAQKKGDIILGGLFPIHFGVAAKDQDLKSRPESVECIRYNFRGFRWLQAMIFAIEEINSSPALLPNLTLGYRIFDTCNTVSKALEATLSFVAQNKIDSLNLDEFCNCSEHIPSTIAVVGATGSGVSTAVANLLGLFYIPQVSYASSSRLLSNKNQFKSFLRTIPNDEHQATAMADIIEYFRWNWVGTIAADDDYGRPGIEKFREEAEERDICIDFSELISQYSDEEEIQHVVEVIQNSTAKVIVVFSSGPDLEPLIKEIVRRNITGKIWLASEAWASSSLIAMPQYFHVVGGTIGFALKAGQIPGFREFLKKVHPRKSVHNGFAKEFWEETFNCHLQEGAKGPLPVDTFLRGHEESGDRFSNSSTAFRPLCTGDENISSVETPYIDYTHLRISYNVYLAVYSIAHALQDIYTCLPGRGLFTNGSCADIKKVEAWQVLKHLRHLNFTNNMGEQVTFDECGDLVGNYSIINWHLSPEDGSIVFKEVGYYNVYAKKGERLFINEEKILWSGFSREVPFSNCSRDCLAGTRKGIIEGEPTCCFECVECPDGEYSDETDASACNKCPDDFWSNENHTSCIAKEIEFLSWTEPF
modifications: N-glycans trimmed with endoglycosidase F1 before SEC and crystallization (expressed in HEK293S GnTI- cells)
notes: range 20-612; This entry is one protomer; also called ECD of CaSR
  binding result: binds
